# Test results taken from article PMC10881500, “Structure-guided engineering of immunotherapies targeting TRBC1 and TRBC2 in T cell malignancies” (Nature Communications, 2024).
# Where two headings read alike, the source gives them in different places.
# Experiments:
# [1] = biological target: T1, Recombinant, purified TRBC1 (soluble αβ TCR with the β-chain constant domain TRBC1), SPR analyte (Homo sapiens, HA1.7 TCR with TRBC1)
# Target sequence in this assay (main, as listed by the source, chain 1 of 2): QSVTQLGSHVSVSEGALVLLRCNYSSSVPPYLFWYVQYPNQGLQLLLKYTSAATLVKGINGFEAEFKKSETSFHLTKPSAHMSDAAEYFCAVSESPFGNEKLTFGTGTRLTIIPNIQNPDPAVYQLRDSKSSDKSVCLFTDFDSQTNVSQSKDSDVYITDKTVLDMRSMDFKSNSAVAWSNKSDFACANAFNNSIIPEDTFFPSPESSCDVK
# Target sequence in this assay (partner, as listed by the source, chain 2 of 2): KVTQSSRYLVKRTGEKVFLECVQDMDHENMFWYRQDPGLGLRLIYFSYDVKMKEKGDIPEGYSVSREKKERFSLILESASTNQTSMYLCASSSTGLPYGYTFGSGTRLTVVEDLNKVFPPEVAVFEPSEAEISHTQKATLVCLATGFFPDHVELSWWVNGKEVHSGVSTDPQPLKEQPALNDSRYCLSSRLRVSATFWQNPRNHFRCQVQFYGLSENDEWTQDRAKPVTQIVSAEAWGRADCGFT
# [2] = biological target: T2, TCR with the TRBC1 β-chain constant domain, on cells (Homo sapiens, UniProt P01848;P01850)
# Target sequence in this assay (P01848 whole entry, chain 1 of 2, the tested form may be a part): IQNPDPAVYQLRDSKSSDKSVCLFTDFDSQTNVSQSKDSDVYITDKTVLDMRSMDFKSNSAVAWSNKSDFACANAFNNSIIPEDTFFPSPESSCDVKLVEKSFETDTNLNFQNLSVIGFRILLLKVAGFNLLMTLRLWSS
# Target sequence in this assay (P01850 whole entry, chain 2 of 2, the tested form may be a part): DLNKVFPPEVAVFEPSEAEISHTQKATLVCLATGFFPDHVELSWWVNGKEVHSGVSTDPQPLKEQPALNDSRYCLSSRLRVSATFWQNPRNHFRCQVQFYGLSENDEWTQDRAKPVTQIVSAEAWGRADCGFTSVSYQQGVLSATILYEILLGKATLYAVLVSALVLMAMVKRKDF
# [3] = biological target: T1, Recombinant, purified TRBC1 (soluble αβ …); assay: SPR; Biacore T200; antibody as human IgG1 captured with an anti-human capture kit on CM5 to 200 RU; TRBC1 or TRBC2 as analyte, 150 s contact, 300 s dissociation, 30 μl/min, 25 °C, HBS-P+ pH 7.4; 1:1 Langmuir model; settings: both partners purified
# [4] = biological target: T3, Recombinant, purified TRBC2 (soluble αβ TCR with the β-chain constant domain TRBC2), SPR analyte (Homo sapiens, HA1.7 TCR with TRBC2); assay: as above; settings: both partners purified
# T3 construct: also called recombinant TRBC2; source: recombinant, purified
# [5] = biological target: T2, TCR with the TRBC1 β-chain constant …; assay: flow cytometry on cells; HPB-ALL TRBC1, HPB-ALL TRBC2 or HPB-ALL TCR KO cells; titration of IgG from 10 μg/ml in 2-fold dilutions, 30 min RT; anti-human IgG Alexa Fluor 647; settings: one partner purified
# Target sequence in this assay (P01850 whole entry, looked up, chain 1 of 2, the tested form may be a part): as the sequence (P01850 whole entry, chain 2 of 2, the tested form may be a part) above
# Target sequence in this assay (P01848 whole entry, looked up, chain 2 of 2, the tested form may be a part): as the sequence (P01848 whole entry, chain 1 of 2, the tested form may be a part) above
# [6] = biological target: TCR with the TRBC2 β-chain constant domain, on cells (Homo sapiens, UniProt P01848;A0A5B9); assay: flow cytometry on cells; staining of TCR+ cell lines with HuJovi-1 or KFN; settings: one partner purified
# TCR with the TRBC2 β-chain constant domain, on cells, sequence (A0A5B9 whole entry, looked up, chain 1 of 2, the tested form may be a part): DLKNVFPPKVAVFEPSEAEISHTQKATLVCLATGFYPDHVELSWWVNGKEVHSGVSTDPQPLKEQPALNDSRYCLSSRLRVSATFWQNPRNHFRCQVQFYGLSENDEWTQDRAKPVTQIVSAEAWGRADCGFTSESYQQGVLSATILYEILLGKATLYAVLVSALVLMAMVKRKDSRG
# TCR with the TRBC2 β-chain constant domain, on cells, sequence (P01848 whole entry, looked up, chain 2 of 2, the tested form may be a part): as the sequence (P01848 whole entry, chain 1 of 2, the tested form may be a part) above
# [7] = biological target: T3, Recombinant, purified TRBC2 (soluble αβ …); assay: not stated; bi-paratopic (avid) engagement allowed; Supplementary Fig. 12
# [8] = biological target: T3, Recombinant, purified TRBC2 (soluble αβ …); assay: SPR; Biacore T200; scFv-Fc captured on a Series S Protein A chip to 50 RU; TRBC1 or TRBC2 as analyte, 150 s contact, 500 s dissociation, 30 μl/min, 25 °C, HBS-P+ pH 7.4; 1:1 Langmuir model; settings: both partners purified
# [9] = biological target: T1, Recombinant, purified TRBC1 (soluble αβ …); assay: as above; settings: both partners purified
Binder,Kd [3] [nM],koff [3] [s⁻¹],Kd [4] [nM],koff [4] [s⁻¹],other results
"MuJovi-1 (antibody, V domains shown) VH: EVRLQQSGPDLIKPGASVKMSCKASGYTFTGYVMHWVKQRPGQGLEWIGFINPYNDDIQSNERFRGKATLTSDKSSTTAYMELSSLTSEDSAVYYCARGAGYNFDGAYRFFDFWGQGTTLTVSS VL: DVVMTQSPLSLPVSLGDQASISCRSSQRLVHSNGNTYLHWYLQKPGQSPKLLIYRVSNRFPGVPDRFSGSGSGTDFTLKISRVEAEDLGIYFCSQSTHVPYTFGGGTKLEIK",–,–,–,–,Kd [1]: 1.6 nM; binding result [2]: binds
"Mut1 (HuJovi-1 VH T28K), human IgG1 (antibody, V domains shown, as the VH of m1 with the stated change; positions in Kabat numbering; constant region of the human IgG1 heavy chain; as the light chain of m1; IgG1; also called Lys28 mutant; Thr28Lys; source: ExpiCHO, transient transfection, purified (MabSelect SuRe)) VH: QVQLVQSGAEVKKPGASVKVSCKASGYKFTGYVMHWVRQAPGQGLEWMGFINPYNDDIQSNERFRGRVTMTRDTSISTAYMELSRLRSDDTAVYYCARGAGYNFDGAYRFFDFWGQGTMVTVSS VL: DIVMTQSPLSLPVTPGEPASISCRSSQRLVHSNGNTYLHWYLQKPGQSPRLLIYRVSNRFPGVPDRFSGSGSGTDFTLKISRVEAEDVGVYYCSQSTHVPYTFGQGTKLEIK",6.69,0.001,7480,0.585,–
"Mut2 (HuJovi-1 VH T28K, Y32F), human IgG1 (antibody, V domains shown, as the VH of m1 with the stated changes; positions in Kabat numbering; constant region of the human IgG1 heavy chain; as the light chain of m1; IgG1; also called Lys28/Phe32; Thr28Lys, Tyr32Phe double mutant; source: ExpiCHO, transient transfection, purified (MabSelect SuRe)) VH: QVQLVQSGAEVKKPGASVKVSCKASGYKFTGFVMHWVRQAPGQGLEWMGFINPYNDDIQSNERFRGRVTMTRDTSISTAYMELSRLRSDDTAVYYCARGAGYNFDGAYRFFDFWGQGTMVTVSS VL: DIVMTQSPLSLPVTPGEPASISCRSSQRLVHSNGNTYLHWYLQKPGQSPRLLIYRVSNRFPGVPDRFSGSGSGTDFTLKISRVEAEDVGVYYCSQSTHVPYTFGQGTKLEIK",387,0.0689,999,0.125,–
"HuJovi-1 (humanized Jovi-1), human IgG1 (antibody, V domains shown, VH of HuJovi-1 (CDRs of Jovi-1 grafted on IGHV1-2*02); constant region of the human IgG1 heavy chain; whole light chain (CDRs of Jovi-1 grafted on IGKV2-29*02, kappa constant from the AbVec kappa vector); IgG1; The section on CDR grafting names HEK293T as host, the section on antibody expression ExpiCHO; also called aTRBC1; source: ExpiCHO, transient transfection, purified (MabSelect SuRe)) VH: QVQLVQSGAEVKKPGASVKVSCKASGYTFTGYVMHWVRQAPGQGLEWMGFINPYNDDIQSNERFRGRVTMTRDTSISTAYMELSRLRSDDTAVYYCARGAGYNFDGAYRFFDFWGQGTMVTVSS VL: DIVMTQSPLSLPVTPGEPASISCRSSQRLVHSNGNTYLHWYLQKPGQSPRLLIYRVSNRFPGVPDRFSGSGSGTDFTLKISRVEAEDVGVYYCSQSTHVPYTFGQGTKLEIK",2.57,0.000618,–,–,binding result [5]: binds
"KFN (Mut3; HuJovi-1 VH T28K, Y32F, A96N), human IgG1 (antibody, V domains shown, VH of KFN: as the VH of m1 (PDB 7AMP, 7AMQ) with the stated changes, positions in Kabat numbering; constant region of the human IgG1 heavy chain; as the light chain of m1; IgG1; also called Lys28/Phe32/Asn96; aTRBC2; source: ExpiCHO, transient transfection, purified (MabSelect SuRe)) VH: QVQLVQSGAEVKKPGASVKVSCKASGYKFTGFVMHWVRQAPGQGLEWMGFINPYNDDIQSNERFRGRVTMTRDTSISTAYMELSRLRSDDTAVYYCARGNGYNFDGAYRFFDFWGQGTMVTVSS VL: DIVMTQSPLSLPVTPGEPASISCRSSQRLVHSNGNTYLHWYLQKPGQSPRLLIYRVSNRFPGVPDRFSGSGSGTDFTLKISRVEAEDVGVYYCSQSTHVPYTFGQGTKLEIK",–,–,479,0.0386,binding result [6]: binds; fold affinity differential TRBC1:TRBC2 with bi-paratopic engagement [7]: > 100 fold
"KFN scFv-Fc (scFv, V domains shown, scFv of KFN: VH and VL as in m6 (PDB 7AMS, 7AMR), that is the VH of m1 with the stated changes (Kabat numbering); scFv-Fc with a murine IgG2a Fc; captured on a Protein A chip; source: ExpiCHO, transient transfection, purified (MabSelect SuRe)) VH: QVQLVQSGAEVKKPGASVKVSCKASGYKFTGFVMHWVRQAPGQGLEWMGFINPYNDDIQSNERFRGRVTMTRDTSISTAYMELSRLRSDDTAVYYCARGNGYNFDGAYRFFDFWGQGTMVTVSS VL: DIVMTQSPLSLPVTPGEPASISCRSSQRLVHSNGNTYLHWYLQKPGQSPRLLIYRVSNRFPGVPDRFSGSGSGTDFTLKISRVEAEDVGVYYCSQSTHVPYTFGQGTKLEIK",–,–,–,–,Kd [8]: 1170 nM; koff [8]: 0.0995 s⁻¹
"RFN (Mut4; HuJovi-1 VH T28R, Y32F, A96N), human IgG1 (antibody, V domains shown, as the VH of m1 with the stated changes; positions in Kabat numbering; constant region of the human IgG1 heavy chain; as the light chain of m1; IgG1 in the SPR; also called Arg28/Phe32/Asn96; source: ExpiCHO, transient transfection, purified (MabSelect SuRe)) VH: QVQLVQSGAEVKKPGASVKVSCKASGYRFTGFVMHWVRQAPGQGLEWMGFINPYNDDIQSNERFRGRVTMTRDTSISTAYMELSRLRSDDTAVYYCARGNGYNFDGAYRFFDFWGQGTMVTVSS VL: DIVMTQSPLSLPVTPGEPASISCRSSQRLVHSNGNTYLHWYLQKPGQSPRLLIYRVSNRFPGVPDRFSGSGSGTDFTLKISRVEAEDVGVYYCSQSTHVPYTFGQGTKLEIK",1440,0.125,582,0.045,–
"Mut5 (HuJovi-1 VH Y32F), human IgG1 (antibody, V domains shown, as the VH of m1 with the stated change; positions in Kabat numbering; constant region of the human IgG1 heavy chain; as the light chain of m1; IgG1; source: ExpiCHO, transient transfection, purified (MabSelect SuRe)) VH: QVQLVQSGAEVKKPGASVKVSCKASGYTFTGFVMHWVRQAPGQGLEWMGFINPYNDDIQSNERFRGRVTMTRDTSISTAYMELSRLRSDDTAVYYCARGAGYNFDGAYRFFDFWGQGTMVTVSS VL: DIVMTQSPLSLPVTPGEPASISCRSSQRLVHSNGNTYLHWYLQKPGQSPRLLIYRVSNRFPGVPDRFSGSGSGTDFTLKISRVEAEDVGVYYCSQSTHVPYTFGQGTKLEIK",426,0.0457,–,–,–
"Mut6 (HuJovi-1 VH A96N), human IgG1 (antibody, V domains shown, as the VH of m1 with the stated change; positions in Kabat numbering; constant region of the human IgG1 heavy chain; as the light chain of m1; IgG1; source: ExpiCHO, transient transfection, purified (MabSelect SuRe)) VH: QVQLVQSGAEVKKPGASVKVSCKASGYTFTGYVMHWVRQAPGQGLEWMGFINPYNDDIQSNERFRGRVTMTRDTSISTAYMELSRLRSDDTAVYYCARGNGYNFDGAYRFFDFWGQGTMVTVSS VL: DIVMTQSPLSLPVTPGEPASISCRSSQRLVHSNGNTYLHWYLQKPGQSPRLLIYRVSNRFPGVPDRFSGSGSGTDFTLKISRVEAEDVGVYYCSQSTHVPYTFGQGTKLEIK",13.8,0.00197,379,0.00194,–
"Mut7 (HuJovi-1 VH T28K, A96N), human IgG1 (antibody, V domains shown, as the VH of m1 with the stated changes; positions in Kabat numbering; constant region of the human IgG1 heavy chain; as the light chain of m1; IgG1; source: ExpiCHO, transient transfection, purified (MabSelect SuRe)) VH: QVQLVQSGAEVKKPGASVKVSCKASGYKFTGYVMHWVRQAPGQGLEWMGFINPYNDDIQSNERFRGRVTMTRDTSISTAYMELSRLRSDDTAVYYCARGNGYNFDGAYRFFDFWGQGTMVTVSS VL: DIVMTQSPLSLPVTPGEPASISCRSSQRLVHSNGNTYLHWYLQKPGQSPRLLIYRVSNRFPGVPDRFSGSGSGTDFTLKISRVEAEDVGVYYCSQSTHVPYTFGQGTKLEIK",36.5,0.00524,395,0.166,–
"HuJovi-1 scFv-Fc (scFv, V domains shown, scFv of HuJovi-1: VH and VL as in m1 (PDB 7AMP, 7AMQ); scFv-Fc with a murine IgG2a Fc; captured on a Protein A chip; source: ExpiCHO, transient transfection, purified (MabSelect SuRe)) VH: QVQLVQSGAEVKKPGASVKVSCKASGYTFTGYVMHWVRQAPGQGLEWMGFINPYNDDIQSNERFRGRVTMTRDTSISTAYMELSRLRSDDTAVYYCARGAGYNFDGAYRFFDFWGQGTMVTVSS VL: DIVMTQSPLSLPVTPGEPASISCRSSQRLVHSNGNTYLHWYLQKPGQSPRLLIYRVSNRFPGVPDRFSGSGSGTDFTLKISRVEAEDVGVYYCSQSTHVPYTFGQGTKLEIK",–,–,–,–,Kd [9]: 7.51 nM; koff [9]: 0.003 s⁻¹
